Experimental data as given in patent US20200199241A1 (Chugai, published 2020).
Substitutions are numbered along the chain they refer to. Numbers in names are those of the source. Like-named read-outs stand apart in the source and are kept apart here.

Key:
mouse FcRn = biological target: T1, mouse FcRn (mouse, UniProt Q61559 22-297; P01887 21-119, limits assumed); assay: SPR, mouse FcRn, pH 7.0
T1 construct: also called mFcRn
T1 sequence (looked up) 1: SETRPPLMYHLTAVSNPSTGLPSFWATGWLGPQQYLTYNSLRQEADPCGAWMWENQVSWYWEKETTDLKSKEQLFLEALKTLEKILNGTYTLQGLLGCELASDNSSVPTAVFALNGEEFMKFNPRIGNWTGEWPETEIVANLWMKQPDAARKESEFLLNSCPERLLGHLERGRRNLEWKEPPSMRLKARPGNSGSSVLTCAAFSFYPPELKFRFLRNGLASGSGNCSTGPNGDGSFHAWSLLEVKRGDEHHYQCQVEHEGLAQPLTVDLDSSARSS
T1 sequence (looked up) 2: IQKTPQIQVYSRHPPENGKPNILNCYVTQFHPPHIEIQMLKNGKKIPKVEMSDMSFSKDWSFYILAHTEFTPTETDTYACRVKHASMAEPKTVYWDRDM

[1] = biological target: T2, human FcRn (soluble human FcRn complexed with β2-microglobulin) (human, UniProt P61769 21-119, limits assumed); assay: SPR, antibody captured by Protein L, human FcRn as analyte, pH 7.0, 25 C
T2 construct: also called hFcRn
T2 sequence (chain, as listed by the source limits assumed, chain 1 of 2): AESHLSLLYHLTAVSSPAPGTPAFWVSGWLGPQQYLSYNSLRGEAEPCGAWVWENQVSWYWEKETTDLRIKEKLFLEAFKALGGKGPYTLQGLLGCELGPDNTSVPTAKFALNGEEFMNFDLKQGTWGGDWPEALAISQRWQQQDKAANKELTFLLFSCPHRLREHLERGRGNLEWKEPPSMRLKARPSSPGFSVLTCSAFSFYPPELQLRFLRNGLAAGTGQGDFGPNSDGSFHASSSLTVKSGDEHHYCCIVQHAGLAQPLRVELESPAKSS
T2 sequence (P61769 21-119 limits assumed, chain 2 of 2): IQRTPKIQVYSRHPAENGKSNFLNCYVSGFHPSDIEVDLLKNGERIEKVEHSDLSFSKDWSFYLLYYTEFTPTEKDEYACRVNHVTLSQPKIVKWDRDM

human FcγRIIb [2] = biological target: T3, human FcγRIIb (human, UniProt P31994 43-217, limits assumed); assay: SPR, antibody captured by Protein L, human FcγR as analyte, pH 7.4, 25 C
T3 construct: also called hFcgRIIb; FcγIIB
T3 sequence: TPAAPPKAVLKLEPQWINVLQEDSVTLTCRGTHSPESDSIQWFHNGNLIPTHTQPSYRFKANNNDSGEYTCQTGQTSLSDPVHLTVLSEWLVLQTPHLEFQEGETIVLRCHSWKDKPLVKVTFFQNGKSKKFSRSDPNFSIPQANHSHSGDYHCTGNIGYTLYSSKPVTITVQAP

human FcγRIa [3] = biological target: T4, human FcγRIa (human, UniProt P12314 16-292, limits assumed); assay: as above
T4 construct: also called hFcgRIa; hFcgRI
T4 sequence (P12314 16-292 limits assumed): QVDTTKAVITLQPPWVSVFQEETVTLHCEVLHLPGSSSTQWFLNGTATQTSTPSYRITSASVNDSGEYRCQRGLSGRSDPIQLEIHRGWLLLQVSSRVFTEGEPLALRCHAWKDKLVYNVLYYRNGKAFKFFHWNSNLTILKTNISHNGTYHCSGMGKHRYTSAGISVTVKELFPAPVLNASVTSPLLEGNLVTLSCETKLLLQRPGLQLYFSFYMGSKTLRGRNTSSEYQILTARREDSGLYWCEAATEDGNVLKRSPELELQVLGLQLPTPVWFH

human FcγRIIa(R) [4] = biological target: T5, human FcγRIIa(R) (human, UniProt P12318 36-217); assay: as above
T5 construct: also called hFcgRIIa(R); FcγRIIa type R
T5 chain: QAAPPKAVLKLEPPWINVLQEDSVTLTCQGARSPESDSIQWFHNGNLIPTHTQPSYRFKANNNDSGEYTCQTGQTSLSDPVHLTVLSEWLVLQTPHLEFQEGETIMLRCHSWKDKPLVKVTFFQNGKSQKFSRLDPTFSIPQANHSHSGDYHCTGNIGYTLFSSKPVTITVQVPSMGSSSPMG

human FcγRIIa(H) [5] = biological target: T6, human FcγRIIa(H) (human, UniProt P12318 36-217); assay: as above
T6 construct: also called hFcgRIIa(H); FcγRIIa type H
T6 sequence: T5 chain with R133H

[6] = biological target: T2, human FcRn (soluble human FcRn …); assay: SPR, antibody captured by Protein L, human FcRn as analyte, pH 7.0, 25 C; remark: listed apart in the source
human FcγRIIb [7] = biological target: T3, human FcγRIIb; assay: SPR, antibody captured by Protein L, human FcγR as analyte, pH 7.4, 25 C; remark: listed apart in the source
human FcγRIa [8] = biological target: T4, human FcγRIa; assay: as above; remark: listed apart in the source
human FcγRIIa(R) [9] = biological target: T5, human FcγRIIa(R); assay: as above
human FcγRIIa(H) [10] = biological target: T6, human FcγRIIa(H); assay: as above; remark: listed apart in the source
[11] = biological target: T7, human FcRn (complex with human β2-microglobulin) (human, UniProt P61769 21-119, limits assumed); assay: hFcRn KD, method not given
T7 construct: soluble human FcRn complexed with β2-microglobulin was used; also called hFcRn
T7 sequence (chain, as listed by the source limits assumed, chain 1 of 2): as the sequence (chain, as listed by the source limits assumed, chain 1 of 2) above
T7 sequence (P61769 21-119 limits assumed, chain 2 of 2): as the sequence (P61769 21-119 limits assumed, chain 2 of 2) above

human FcγRIIa(R) [12] = biological target: T8, human FcγRIIa(R) (human, UniProt P12318 36-217); assay: SPR, pH 7.4, antibody captured by Protein L
T8 construct: also called FcgRIIaR; hFcgRIIa(R)
T8 chain: T5 chain

human FcγRIIb [13] = biological target: T9, human FcγRIIb (human, UniProt P31994 43-217, limits assumed); assay: SPR, pH 7.4, antibody captured by Protein L
T9 construct: also called FcgRIIb; hFcgRIIb
T9 sequence: T3 sequence

B1: antibody with mPM1H-mIgG1-mF3 heavy chain and L(WT)-CK light chain (antibody)
heavy: DVQLQESGPVLVKPSQSLSLTCTVTGYSITSDHAWSWIRQFPGNKLEWMGYISYSGITTYNPSLKSRISITRDTSKNQFFLQLNSVTTGDTSTYYCARSLARTTAMDYWGQGTSVTVSSAKTTPPSVYPLAPGSAAQTNSMVTLGCLVKGYFPEPVTVTWNSGSLSSGVHTFPAVLQSDLYTLSSSVTVPSSTWPSETVTCNVAHPASSTKVDKKIVPRDCGCKPCICTVPEVSSVFIFPPKPKDVLYITLEPKVTCVVVDISKDDPEVQFSWFVDDVEVHTAQTQPREEQFNSTFRSVSELPIMHQDWLNGKEFKCRVNSAAFPAPIEKTISKTKGRPKAPQVYTIPPPKEQMAKDKVSLTCMITDFFPEDITVEWQWNGQPAENYKNTQPIMDTDGSYFVYSKLNVQKSNWEAGNTFTCSVLHEGLKFHHTEKSLSHSPGK
light: not shown
notes: T252Y/T256E/H433K/N434F; copies: 2 + 2
Kd (mouse FcRn): 1.6 nM

B2: VH3/L(WT)-IgG1-F698 (antibody, name in EU numbering)
heavy: QVQLQESGPGLVKPSETLSLTCAVSGHSISHDHAWSWVRQPPGEGLEWIGFISYSGITNYNPSLQGRVTISRDNSKNTLYLQMNSLRAEDTAVYYCARSLARTTAMDYWGEGTLVTVSSASTKGPSVFPLAPSSKSTSGGTAALGCLVKDYFPEPVTVSWNSGALTSGVHTFPAVLQSSGLYSLSSVVTVPSSSLGTQTYICNVNHKPSNTKVDKKVEPKSCDKTHTCPPCPAPELLGGPSVFLFPPKPKDTLYISRTPEVTCVVVDVSHEDPEVKFNWYVDGVEVHEAKTKPREEQYNSTYRVVSVLQVLHADWLNGKEYKCKVSNKALPAPIEKTISKAKGQPREPQVYTLPPSRDELTKNQVSLTCLVKGFYPSDIAVEWESNGQPENNYKTTPPVLDSDGSFFLYSKLTVDKSRWQQGNVFSCSVMHEALHYHYTQKSLSLSP
light: not shown
notes: copies: 2 + 2
Kd [1]: 22 nM | BINDING AMOUNT (RU) (human FcγRIIb [2]): 42.1 RU | BINDING AMOUNT (RU) (human FcγRIa [3]): 392 RU | BINDING AMOUNT (RU) (human FcγRIIa(R) [4]): 117 RU | BINDING AMOUNT (RU) (human FcγRIIa(H) [5]): 116 RU | Kd [6]: 22 nM | BINDING AMOUNT (RU) (human FcγRIIb [7]): 42.1 RU | BINDING AMOUNT (RU) (human FcγRIa [8]): 392 RU | BINDING AMOUNT (RU) (human FcγRIIa(R) [9]): 117 RU | BINDING AMOUNT (RU) (human FcγRIIa(H) [10]): 116 RU

B3: antibody with heavy chain VH3-IgG1-FA6a (Heavy Chain A) (antibody)
heavy: B2 heavy with T252V, E288N, V310P, D358K, E359K, Y438V
light: not shown
notes: T250V/M252Y/T307Q/V308P/Q311A/D356K/E357K/N434Y/Y436V
Kd [11]: 11 nM

B4: VH3-IgG1-F652/L(WT)-CK (antibody)
heavy: B2 heavy with P240D, E288N, Q309T, A313Q
light: not shown
notes: P238D in VH3-IgG1-F11; copies: 2 + 2
binding amount (human FcγRIIa(R) [12]): 9.1 RU | binding amount (human FcγRIIb [13]): 64 RU
